Measured values as given in patent US20250215403A1, “Compositions and Methods for Cardiac Tissue Regeneration” (Temple University - Of The Commonwealth System Of Higher …, priority 2022, published 2025).

Key:
cardiomyocytes (CM) = assay: Mouse MI model: TUNEL staining of CM apoptosis; assay type: in vivo; conditions: vs Luc modRNA
Description: (§1) All surgical and experimental procedures with mice were performed in accordance with protocols approved by Institutional Animal Care and Use Committees at Temple University Animal Care and Use Committee (IACUC). C57BL6 or CM-specific MADM mice (8-12-weeks-old) were anesthetized with isoflurane. MI was induced by permanent ligation of the LAD, as previously described (Garikipati, V. N. S., et al., 2019, Nature Communications, 10:4317). Briefly, the left thoracic region was shaved and sterilized. After intubation, the heart was exposed through a left thoracotomy. A suture was placed to ligate the LAD. The thoracotomy and skin were sutured closed in layers. Excess air was removed from the thoracic cavity, and the mouse was removed from ventilation when normal breathing was established. In order to determine the effect of modRNA on cardiovascular outcome after MI, modRNAs (100 μg/heart) were injected into the infarct zone immediately after LAD ligation (Magadum A., et al., Circulation. 2020, 141 (15): 1249-1265). For examination of heart histology, hearts were collected at the end of each study, quickly washed in PBS, weighed, and fixed in 4% PFA for cryo-sectioning and immunostainings. In all experiments, the surgeon was blinded to the treatment group. For assessment of heart histology, hearts were collected at the end of each study. The hearts were excised, briefly washed in PBS, perfused with perfusion buffer, weighed and fixed in 4% PFA at 4° C. overnight. The heart blocks were transverse sectioned at 6-8 μm using cryostat. The heart sections were further processed for histological evaluation using immunostaining (see below) or histological scar staining using Masson's trichrome staining kit (Sigma) according to standard procedures. Measuring the ratio of heart weight to body weight was done using a scale. This ratio was calculated as the heart tissue weight relative to the mouse total body weight in grams (g).
Mice hearts were harvested, weighed, and fixed in 4% PFA/PBS overnight on shaker and then washed with PBS for 1 hour and incubated in 30% sucrose/PBS at 4° C. for 12-18 hours. Hearts were then fixed in OCT and frozen at −80° C. (Magadum A., et al., Circulation. 2020, 141 (15): 1249-1265). Transverse heart sections (6-8 μm) were made using a cryostat. […] For immunostaining with wheat germ agglutinin (WGA) for CM size quantification, images were captured at 40× magnification, and ImageJ was used to determine the area of each cell. Quantitative analyses involved counting of multiple fields from 5-8 mouse hearts per group, and 3-4 sections/heart (˜50 cells per field assessed, for a total ˜250 cells per sample). […] BrdU positive CMs were counted in multiple fields from three independent samples per group and 3 sections/heart. […]

[1] = Mouse MI model: echocardiography of cardiac function 28 days post-MI; assay type: in vivo
Description: In vivo transfection of modRNA was done as described previously in a recent method paper (Magadum A., et al., Circulation. 2020, 141 (15): 1249-1265; Sultana N., et al., Mol Ther, 2017, 25 (6): 1306-1315) using sucrose citrate buffer containing 10 μl of sucrose in nuclease-free water (0.3 g/ml), 10 μl of citrate (0.1M pH-7; Sigma) mixed with 10 μl of different concentrations of modRNA in saline to a total volume of 30 μl. Immediately after LAD ligation, mice received an intra-myocardial injection of modRNA (100 μg) in total volume of 30 μL at 3 different sites (mid-anterior×2 places and apical anterior) in the peri-infarct area (Magadum A., et al., Circulation. 2020, 141 (15): 1249-1265; Magadum, A., et al., 2021, Advanced Science, 9:2004661). For in vitro transfection, RNAiMAX transfection reagent (Life Technologies) was used according to manufacturer's recommendation (Magadum A., et al., Circulation. 2020, 141 (15): 1249-1265; Sultana N., et al., Mol Ther, 2017, 25 (6): 1306-1315).
as §1
Mice underwent surgery to ligate the left anterior descending coronary artery as reported previously, followed by intramyocardial administration of exosomes or EVs (1×10^9) from hiPSC cells and IMR-90 cells suspended in PBS into the left ventricular wall (border zone) at two different locations and at the heart apex at one location immediately after left anterior descending ligation (Yue, Y., et al., 2020, Circulation Research, 126:315-329). The saline group underwent the same surgery but received saline without exosomes. Tissue was harvested at 7- or 28-days post-MI for histological analysis.

[2] = test system: serine synthesis pathway (SSP); assay: 13C glucose isotopic tracer metabolic flux analysis in neonatal rat CMs; assay type: cell-based
Description: P3 neonatal rat CMs (2×10^6) were cultured in DMEM and transfected with Luc or PSAT1 modRNA. After 6 hours medium was changed with ^13C glucose-containing DMEM. Samples were collected at 10 min, 2 hours and 18 hours by flash freezing the cell culture plates using liquid nitrogen and stored at −80° C. Metabolites were extracted from cells using 80% methanol (Magadum A., et al., Circulation. 2020, 141 (15): 1249-1265). Targeted LC/MS analyses were performed on a Q Exactive Orbitrap mass spectrometer (Thermo Scientific) coupled to a Vanquish UPLC system (Thermo Scientific). The Q Exactive was operated in polarity-switching mode. A Sequant ZIC-HILIC column (2.1 mm i.d.×150 mm, Merck) was used for separation of metabolites with a flow rate was 150 μL/min. […] Relative metabolite quantitation was performed based on peak area for each metabolite. All data analyses were done using scripts written in house (Metabolomics Facility, Biotechnology Resource Center, Cornell University).

B1: PSAT1 modRNA: modified mRNA with N1-methylpseudouridine, transcribed in vitro, encoding phosphoserine aminotransferase 1 (ORF SEQ ID NO: 1, RNA SEQ ID NO: 2) (nucleic acid)
chain: AUGGAAGCCACCAAGCAAGUGGUUAACUUUGGGCCCGGGCCUGCCAAGCUGCCACACUCGGUAUUGUUGGAGAUCCAGAAGCAGCUACUAGACUACAGAGGACUCGGCAUCAGUGUGCUCGAAAUGAGUCACAGGUCAUCAGAUUUUGCCAAGAUUAUUGGCAAUACAGAGAAUCUUGUGAGGGAAUUGCUAGCUGUUCCCAACAACUACAAGGUGAUCUUUGUACAAGGAGGUGGGUCUGGCCAGUUCAGUGCUGUCCCCUUAAAUCUGAUUGGCCUGAAAGCUGGAAGGAGUGCUGACUACGUGGUGACCGGAGCUUGGUCAGCUAAGGCUGCGGAAGAAGCCAAGAAGUUUGGAACGGUGAACAUUGUCCACCCUAAACUUGGAAGUUACACAAAAAUUCCAGACCCAAGCACCUGGAACCUCAACCCGGACGCCUCCUAUGUAUACUUCUGUGCAAACGAGACUGUGCACGGGGUGGAGUUUGACUUCGUACCUGACGUCAAGGGAGCGGUGCUGGUCUGUGACAUGUCCUCAAACUUCUUAUCCAGGCCGGUGGAUGUUUCCAAGUUUGGUGUGAUUUUCGCUGGUGCUCAGAAGAAUGUUGGCUCUGCCGGGGUGACGGUGGUGAUUGUCCGGGAUGACCUGCUGGGGUUCUCGCUCAGAGAGUGCCCAUCAGUCCUUGACUACAAAGUGCAGGCUGGGAACAACUCUUUGUAUAACACACCUCCGUGCUUCAGCAUCUACGUCAUGGGCAUGGUCCUGGAAUGGAUCAAGAACAACGGCGGGGCCGCAGCCAUGGAGAAGCUCAGCUCCAUCAAAUCCCAAAUGAUUUAUGAGAUCAUUGAUAAUUCUCAAGGAUUUUAUGUAUGCCCAGUGGAGCGCCAGAAUAGAAGCAGGAUGAACAUCCCAUUUCGCAUUGGCAACGCCAAAGGAGACGAAGCUUUGGAAAAGCGGUUUCUUGACAAGGCGGUAGAACUCAACAUGAUCUCCUUGAAGGGGCACAGGUCAGUGGGAGGCAUUCGUGCCUCUCUGUAUAACGCUGUCACAACCGAAGACGUUGAGAAGCUGGCGGCCUUCAUGAAGAAUUUCUUGGAGAUGCAUCAGCUGUGA
modifications: N1-methylpseudouridine
TUNEL+ CMs (cardiomyocytes (CM); 2 days post-MI): significantly decreased
TUNEL+ CMs (cardiomyocytes (CM); 7 days post-MI): significantly decreased
LV end-diastolic posterior wall thickness [1]: significantly increased
LV end-systolic posterior wall thickness [1]: significantly increased
Fractional Shortening (% FS) ([1]; compared to Luc): significantly improved
LVIDd (left ventricular internal diameter end-diastole) ([1]; compared to control): Improvements
LVIDs (left ventricular internal diameter end-systole) ([1]; compared to control): Improvements
Ejection Fraction (% EF) ([1]; myocardial delivery, compared to Luc): significantly improved
glutathione levels ([2]; 13C glucose flux): Increased
purines AMP and GMP levels ([2]; 13C glucose flux): increased
TCA cycle intermediates ([2]; 13C glucose, vs Luc modRNA): Increased levels
metabolites involved in the serine synthesis pathway (SSP), including phosphoserine, serine, and glycine ([2]; 13C glucose, vs Luc modRNA): significant elevation
